Experiments:
[1] = molecular target: 40S ribosomes of S223A cells (S. cerevisiae | S. cerevisiae (endogenous in yeast cells)) (UniProt P26783); assay: co-sedimentation; yeast lysate in TSM buffer (10 mM Tris-HCl pH7.4, 100 mM NaCl, 30 mM MgCl2), 10-40% sucrose gradient ultracentrifugation; fractions blotted with anti-HA and anti-Rio2; densitometry, duplicate experiments
[2] = molecular target: 40S ribosomes of cells with WT uS7 (S. cerevisiae | S. cerevisiae (endogenous in yeast cells)) (UniProt P26783); assay: as above

- percent of Rio2 in the 40S fraction [1]: 28%
- percent of Rio2 in the 40S fraction [2]: 41%
Substance: Rio2, endogenous (from UniProt P40160 1-425) (natural protein)

From publication PMC5775349
